Patent US7645449B2, “Sensitizing cells for apoptosis by selectively blocking cytokines” (priority 2003, dated 2010)

Test system: normal thyrocytes
Assay: Cytokine protection of normal thyrocytes from chemotherapy-induced apoptosis
Assay type: cell-based, human
Settings: 48 h pre-treatment, rhIL-4 20 ng/ml or rhIL-10 40 ng/ml, then drugs for 12 h
Description: Thyroid cell purification and culture. Thyroid tissues from normal, PTC, FTC and UTC were digested for 2 hours with collagenase (1.5 mg/ml) (Gibco BRL, Grand Island, N.Y.) and hyaluronidase (20 μg/ml) (Sigma Chemical Co., St. Louis, Mo.) in DMEM. Thyrocytes were purified from the digested tissues by hematopoietic cell depletion with anti-CD45-coupled beads (Dynal, Wirral Merseyside, U.K.) and 12 hours of flask adherence, which allowed removal of other cells. After additional 12 hours of culture, thyroid cells were allowed to grow in monolayer for the immunocytochemistry or detached with trypsin+EDTA following exposure to cytokines or chemotherapeutic agents for functional and protein analyses. […]
Cell death quantitation. Apoptotic events of neoplastic thyrocytes were evaluated by DNA staining and flow cytometry analysis. […] The percentage of hypodiploid nuclei was evaluated as previously described. […] The number of viable cells was detected by CellTiter Aqueous Assay Kit (Promega Corporation, WI, USA) adding 20 μl of solution reagent directly to culture wells, incubating for 1 hours at 37° C. and recording absorbance at 490 nm. […]

B1: IL-4: human recombinant IL-4 (protein, UniProt P05112 25-153, looked up)
Interleukin-4: HKCDITLQEIIKTLNSLTEQKTLCTELTVTDIFAASKNTTEKETFCRAATVLRQFYSHHEKDTRCLGATAQQFHRHKQLIRFLKRLDRNLWGLAGLNSCPVKEANQSTLENFLERLKTIMREKYSKCSS
- prevention of death of normal thyrocytes exposed to cisplatinum, doxorubicin and taxol: drastically prevented death
